Our source for the relative A epitope density (ratio of blood group A to mIgG reactivity), fold over PSGL-1/mIgG2b made in 293T cells with FUT2 and the A gene values is patent US20080319173A1.

The target in this test is PSGL-1/mIgG2b produced in CHO cells with FUT2 (Se gene) and α1,3 GalNAcT (A gene) (mouse). Put plainly: western blot, chemiluminescence volumes (Fluor-S Max MultImager), anti-A signal divided by anti-mIgG signal.

Turning to “mouse anti-human blood group A all types (mIgM, Dako) (antibody)”, the relative A epitope density (ratio of blood group A to mIgG reactivity), fold over PSGL-1/mIgG2b made in 293T cells with FUT2 and the A gene came out at 3 fold.
